# Data reported in the supplement of paper PMC10126150.
# ± gives the standard deviation of the averaged measurements.
# Test system: ATP
# Assay: switch fluorescence ratio, 500 uM ATP over buffer (Cy3 cluster intensity, sum of 5 cycles each) (fold (ratio)); higher = stronger signal-on switching upon ATP binding; sequences stand for … in TCGTCGGCAGCGTCAGATGTGTATAAGAGACAGTTTTTTTTTTTTTTTTTTTTTTTTT…TC
# Settings: aptamer strand: ATP DNA aptamer (quencher-CACCTGGGGGAGTATTGCGGAGGAAGG + anchor), 100 nM annealed; ATP concentration: 500 uM
# In short: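 The quencher-labelled ATP aptamer, at 100 nM, was annealed to Cy3-labelled switching-strand clusters on a modified Illumina MiSeq flow-cell. The clusters were imaged in selection buffer, then after 15 min with 500 uM ATP at 22 °C, and this buffer/ATP cycle ran five times with NaOH stripping and re-annealing between runs. Per-cluster fluorescence ratios, summed target-cycle over summed buffer-cycle Cy3 intensity, were averaged per switch-domain sequence. Clusters outside 100-1000 RFU were excluded.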
# 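Note: ATP exposure 15 min at 22 °C before imaging.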
row,Sequence,switch fluorescence ratio
1,CCGATAGGGG,1.05 ± 0.093
2,CCGCAGAGCA,1.79 ± 0.043
3,CCGCATTGGT,4.77 ± 0.66
4,CCGCCAGGGG,3.42 ± 1.8
5,CCGCCATAAG,3.42 ± 0.68
6,CCGCCTTAAT,2.21 ± 0.084
7,CCGCGACAGG,3.04 ± 0.22
8,CCGCGGCGAA,1.47 ± 0.22
9,CCGCGGGGTT,1.2 ± 0.084
10,CCGCGGGTCG,1.046 ± 0.0013
11,CCGCGTACGG,2.03 ± 0.22
12,CCGCGTTATG,1.67 ± 0.078
13,CCGCTAAGGT,1.39 ± 0.092
14,CCGCTACTGT,2.69 ± 0.39
15,CCGCTCAGTT,1.355 ± 0.0058
16,CCGCTCGATG,1.37 ± 0.023
17,CCGCTTGGTT,1.23 ± 0.028
18,CCGCTTTGTT,1.24 ± 0.072
19,CCGGAAAAAG,1.02 ± 0.074
20,CCGGAAAGAG,1.06 ± 0.02
21,CCGGACAGCG,0.99 ± 0.038
22,CCGGACAGTG,1.09 ± 0.099
23,CCGGACGTTC,1.53 ± 0.042
24,CCGGAGGTCG,0.958 ± 0.012
25,CCGGATCGGC,1.04 ± 0.029
26,CCGGATTATA,1.046 ± 0.0059

row,Sequence,switch fluorescence ratio
1,CCGGATTTTG,0.981 ± 0.012
2,CCGGCCGGGG,1.01 ± 0.059
3,CCGGCGGTTT,1.04 ± 0.029
4,CCGGCTTGCT,1.03 ± 0.036
5,CCGGCTTTAG,0.99 ± 0.015
6,CCGGGAGAAA,1.28 ± 0.02
7,CCGGGAGGTA,0.991 ± 0.021
8,CCGGGCTGGG,1.03 ± 0.018
9,CCGGGGAACG,1.08 ± 0.048
10,CCGGGGAATG,1.04 ± 0.052
11,CCGGGGAGGA,1.06 ± 0.026
12,CCGGGGAGGG,1.08 ± 0.053
13,CCGGGGATTG,1.01 ± 0.027
14,CCGGGGCTGG,1.04 ± 0.037
15,CCGGGGCTTT,1.17 ± 0.021
16,CCGGGGGAAC,1.14 ± 0.09
17,CCGGGGGACA,1.1 ± 0.17
18,CCGGGGGATC,1.1 ± 0.017
19,CCGGGGGCTA,2.69 ± 1.9
20,CCGGGGGGAG,1.02 ± 0.045
21,CCGGGGGGCC,1.08 ± 0.038
22,CCGGGGTCGT,1.02 ± 0.012
23,CCGGGGTCTG,0.995 ± 0.035
24,CCGGGTCTTT,1.002 ± 0.0064
25,CCGGGTTTTT,1.12 ± 0.13
26,CCGGTCAGTG,1.066 ± 0.0088

row,Sequence,switch fluorescence ratio
1,CCGGTTGCTG,1.12 ± 0.066
2,CCGTAAAACT,2.46 ± 1.2
3,CCGTATATAT,2.55 ± 0.096
4,CCGTCAACTA,1.96 ± 0.22
5,CCGTCATCTT,1.024 ± 0.0072
6,CCGTCGGGGT,1.09 ± 0.025
7,CCGTGGCGTG,1.01 ± 0.033
8,CCGTGGCTGT,1.31 ± 0.068
9,CCGTGGGATG,0.986 ± 0.031
10,CCGTGGGGGT,1.054 ± 0.0029
11,CCGTGTACGG,0.999 ± 0.054
12,CCGTGTAGGG,1.01 ± 0.034
13,CCGTTACCTG,0.974 ± 0.015
14,CCGTTAGCTT,2.2 ± 0.079
15,CCGTTGAGCG,1.03 ± 0.03
16,CCGTTGGGGT,1.11 ± 0.13
17,CCGTTGTAAG,1.0184 ± 0.001
18,CCGTTTGGTC,1.02 ± 0.019
19,CCGTTTGTGC,1.21 ± 0.063
20,CCGTTTTGCG,1.02 ± 0.027
21,CCTAAATTAT,1.02 ± 0.035
22,CCTAAATTTT,1.01 ± 0.024
23,CCTAACAGTT,1.02 ± 0.0039
24,CCTAACTAAA,0.995 ± 0.028
25,CCTAACTTAG,1.021 ± 0.0029
26,CCTAAGTGGG,1.02 ± 0.034

row,Sequence,switch fluorescence ratio
1,CCTAATAGGG,0.9929 ± 0.0033
2,CCTAATTTGG,0.974 ± 0.031
3,CCTACACTGG,1.13 ± 0.048
4,CCTACGTTT,1.06 ± 0.063
5,CCTAGAGGGT,1.07 ± 0.024
6,CCTAGCATGG,2.05 ± 0.21
7,CCTAGCGGTG,1.12 ± 0.03
8,CCTAGCTG,1.02 ± 0.056
9,CCTAGGAGCC,1.05 ± 0.026
10,CCTAGGATTC,1.01 ± 0.043
11,CCTAGGGGTT,1.09 ± 0.064
12,CCTAGTACCG,0.992 ± 0.069
13,CCTAGTGGGG,1.04 ± 0.06
14,CCTATGATTG,0.981 ± 0.023
15,CCTATGGCGG,1.07 ± 0.017
16,CCTATTCTGA,0.97 ± 0.068
17,CCTCCAGGTT,3.69 ± 3.2
18,CCTCGGTGCG,1.02 ± 0.0087
19,CCTCGTTTTT,1.11 ± 0.053
20,CCTCTATTCA,1.06 ± 0.019
21,CCTCTATTGG,1.045 ± 0.0041
22,CCTCTTAACT,1.13 ± 0.037
23,CCTCTTCATA,2.54 ± 0.28
24,CCTCTTTTTT,1.1 ± 0.035
25,CCTGAATTTC,1.12 ± 0.14
26,CCTGACTTTC,1.11 ± 0.045

row,Sequence,switch fluorescence ratio
1,CCTGACTTTG,0.972 ± 0.043
2,CCTGAGGGCG,1.037 ± 0.01
3,CCTGAGTCGT,1.09 ± 0.017
4,CCTGATGCGG,1.02 ± 0.059
5,CCTGCAGAGC,1.28 ± 0.058
6,CCTGCATGTG,1.26 ± 0.02
7,CCTGCCCTGT,1.108 ± 0.0022
8,CCTGCCTCCT,2.27 ± 0.041
9,CCTGCGTTTT,1.75 ± 0.32
10,CCTGCTCATC,1.99 ± 0.22
11,CCTGCTGGCG,1.04 ± 0.12
12,CCTGGATGTA,1.02 ± 0.025
13,CCTGGATTAG,1.05 ± 0.041
14,CCTGGATTCA,0.9888 ± 0.002
15,CCTGGATTTA,1.01 ± 0.011
16,CCTGGCTGAT,1.11 ± 0.058
17,CCTGGCTTGA,0.996 ± 0.016
18,CCTGGGAGGA,1.012 ± 0.0014
19,CCTGGGCGTC,1.037 ± 0.004
20,CCTGGGGCGG,1.07 ± 0.019
21,CCTGGGGGAA,1.025 ± 0.0073
22,CCTGGGGGAG,1.05 ± 0.11
23,CCTGGGGGGG,1.03 ± 0.05
24,CCTGGGGTCT,1.03 ± 0.015
25,CCTGGGGTTG,1.05 ± 0.14
26,CCTGGGTCTG,1.001 ± 0.006

row,Sequence,switch fluorescence ratio
1,CCTGGGTGTG,1.05 ± 0.11
2,CCTGTAAATG,1.15 ± 0.21
3,CCTGTCTTCT,0.9869 ± 0.0061
4,CCTGTGATTC,1.23 ± 0.058
5,CCTGTGCCCG,1.01 ± 0.041
6,CCTGTTTATT,0.974 ± 0.012
7,CCTTAAGACA,1.06 ± 0.015
8,CCTTAGGTTT,1.002 ± 0.0011
9,CCTTATAATT,1.02 ± 0.035
10,CCTTATGGGG,1 ± 0.023
11,CCTTATTTCT,1 ± 0.031
12,CCTTGCAGAT,1.99 ± 0.78
13,CCTTGGGGAA,0.98 ± 0.013
14,CCTTGGGGTG,1.06 ± 0.14
15,CCTTGTGGGA,0.983 ± 0.011
16,CCTTGTTTTT,1.01 ± 0.01
17,CCTTTAGATT,1.01 ± 0.013
18,CCTTTCACTC,1.124 ± 0.0035
19,CCTTTCAGGA,0.9993 ± 0.0015
20,CCTTTCGGGT,0.982 ± 0.039
21,CCTTTCGTGT,1.19 ± 0.22
22,CCTTTGCAGG,2.45 ± 0.27
23,CCTTTGCCCG,1.07 ± 0.17
